Laboratory results taken from the supplement of paper PMC12667976.
± gives the standard error.

B1: library; numbered along this chain (parent)
chain: MATDAALRRLLRLHRTEIAVAVDSAFPLLHALADHDVVPEDKFQETLHLKEKEGCPQAFHALLSWLLTQDSTAILDFWRVLFKDYNLERYGRLQPILDSFPKDVDLSQPRKGRKPPAVPKALVPPPRLPTKRKASEEARAAAPAALTPRGTASPGSQLKAKPPKKPESSAEQQRLPLGNGIQTMSASVQRAVAMSSGDVPGARGAVEGILIQQVFESGGSKKCIQVGGEFYTPSKFEDSGSGKNKARSSSGPKPLVRAKGAQGAAPGGGEARLGQQGSVPAPLALPSDPQLHQKNEDECAVCRDGGELICCDGCPRAFHLACLSPPLREIPSGTWRCSSCLQATVQEVQPRAEEPRPQEPPVETPLPPGLRSAGEEVRGPPGEPLAGMDTTLVYKHLPAPPSAAPLPGLDSSALHPLLCVGPEGQQNLAPGARCGVCGDGTDVLRCTHCAAAFHWRCHFPAGTSRPGTGLRCRSCSGDVTPAPVEGVLAPSPARLAPGPAKDDTASHEPALHRDDLESLLSEHTFDGILQWAIQSMARPAAPFPS

Variants of: B1
Assay: AIRE transcriptional activation functional score (insulin promoter-GFP; nonsense median 0, synonymous median 1) (normalised score); higher = higher AIRE activity (more reporter activation)
Settings: with insulin promoter-GFP reporter in HEK293
In short: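 The functional score compares variant enrichment between select and non-select populations after subtracting wild type. To obtain it, codon-optimized AIRE NNN-codon libraries spanning three regions were placed by Bxb1 recombinase into Flp-In T-REx HEK293 landing-pad cells with an insulin core promoter-GFP reporter. Cells with the top 10% GFP and unselected integrants were tile-sequenced after mCherry+, BFP− integrants had been sorted at day 7 and grown 7 more days. Only variants with 10 counts per million in non-select were kept, rescaled to nonsense median 0 and synonymous median 1, and averaged across biological replicates.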

Variant | AIRE transcriptional activation functional score
L511Y | 1.19 ± 0.072
G379V | 0.691 ± 0.24
H454G | 0.0883 ± 0.26
H14T | 0.312 ± 0.1
L32Q | -0.665 ± 0.32
S195V | 0.475 ± 0.15
C223G | 0.803 ± 0.22
G201L | 1.32 ± 0.22
G306F | 0.459 ± 0.082
F318Y | 1.07 ± 0.11
F318A | 0.96 ± 0.3
F318K | 1.39 ± 0.13
K133W | -0.155 ± 0.076
T147L | 1.05 ± 0.42
N295S | 0.92 ± 0.26
E329G | 0.92 ± 0.3
L414R | 0.749 ± 0.26
T524V | 0.353 ± 0.35
T524W | 0.629 ± 0.04
S185Q | 0.746 ± 0.13
S185R | 0.854 ± 0.2
G251F | 1.2 ± 0.13
P401N | 1.09 ± 0.047
P401H | 1.01 ± 0.13

Variant | AIRE transcriptional activation functional score
C302I | 0.572 ± 0.14
G305F | 0.497 ± 0.098
G305C | 1.06 ± 0.18
G305N | 1.16 ± 0.32
R132C | -0.0301 ± 0.38
S135I | 1.2 ± 0.12
S135R | 0.761 ± 0.25
G313Q | 1 ± 0.27
P115Q | 1.01 ± 0.35
E40I | 0.121 ± 0.83
E307M | 0.227 ± 0.14
E307Q | 1 ± 0.19
P252L | 1.15 ± 0.28
P252N | 1.41 ± 0.035
P497I | 1.13 ± 0.2
R456V | -0.245 ± 0.13
R456D | 0.851 ± 0.091
R456Q | 1.13 ± 0.12
D514N | 0.242 ± 0.062
H458N | 0.71 ± 0.04
H458P | 0.0561 ± 0.15
L175S | 0.686 ± 0.34
T391Q | 0.725 ± 0.055
L327W | 1.69 ± 0.054

Variant | AIRE transcriptional activation functional score
A373G | 0.987 ± 0.39
G477S | 0.661 ± 0.27
P162A | 0.796 ± 0.87
L128P | 1.17 ± 0.34
G387T | 1.22 ± 0.16
G387Y | 1.72 ± 0.1
P357I | 1.11 ± 0.14
Q534A | 1.7 ± 0.083
P405E | 0.742 ± 0.073
L13V | 0.593 ± 0.48
L13S | -0.217 ± 0.59
L13D | -0.291 ± 1.1
N86I | 0.0139 ± 0.67
T441G | 0.478 ± 0.33
T151N | 0.966 ± 0.16
G277Y | 0.553 ± 0.1
R328H | -0.256 ± 0.33
R328P | 1.22 ± 0.21
Q293S | 0.559 ± 0.4
Q293N | 0.746 ± 0.046
Q293R | 0.982 ± 0.32
L97G | -0.102 ± 0.52
P39A | -0.568 ± 0.77
S217T | 0.908 ± 0.26

Variant | AIRE transcriptional activation functional score
P499Q | 1.15 ± 0.18
C299S | 0.703 ± 0.26
Q262Y | 1.05 ± 0.11
S153K | 0.285 ± 0.37
D198P | 0.58 ± 0.15
T447V | 1.18 ± 0.26
D312W | 0.939 ± 0.08
D312R | 0.976 ± 0.29
T183C | 1.48 ± 0.11
T183H | 0.652 ± 0.16
V256C | 0.771 ± 0.33
V256L | 0.974 ± 0.23
V256A | 1.16 ± 0.34
P326W | 1.08 ± 0.2
G527M | 0.725 ± 0.034
M388G | 0.832 ± 0.22
M388I | 0.924 ± 0.41
E375D | 1.04 ± 0.11
D304I | 0.384 ± 0.081
D304N | 0.503 ± 0.28
A432H | 0.437 ± 0.44
S338K | 1.08 ± 0.12
P350Q | 0.912 ± 0.13
A300V | 1.09 ± 0.29

Variant | AIRE transcriptional activation functional score
A31N | -0.416 ± 0.14
A31G | 0.0886 ± 0.44
A31Q | 0.778 ± 0.11
A117R | 0.501 ± 0.51
A117V | 0.34 ± 0.65
A264M | 1.01 ± 0.1
P101Y | 0.166 ± 0.27
P101F | -0.111 ± 0.049
C322N | 0.919 ± 0.21
G242E | 0.0818 ± 0.052
G431M | 0.776 ± 0.13
P163K | 1.29 ± 0.082
P163F | 0.944 ± 0.13
G374Y | 0.519 ± 0.61
G374F | 2.03 ± 0.12
G374S | 1.24 ± 0.3
C55Q | -0.411 ± 0.27
F525I | 0.367 ± 0.3
F525D | 0.0868 ± 0.17
Q290L | 0.646 ± 0.18
A541E | 0.858 ± 0.22
G421P | 1.4 ± 0.13
H415I | 0.632 ± 0.12
E522F | 0.252 ± 0.14

Variant | AIRE transcriptional activation functional score
L66S | -0.186 ± 0.46
L66Y | 0.687 ± 0.4
E363R | 1.21 ± 0.11
E363H | 1.19 ± 0.069
E363Q | 0.775 ± 0.28
G263V | 1.25 ± 0.15
G263I | -0.607 ± 0.28
N427Q | 0.539 ± 0.033
N427K | 0.842 ± 0.079
A451H | 0.282 ± 0.15
P483V | 1.03 ± 0.074
A261W | 1.33 ± 0.27
L122F | 1.32 ± 0.15
C446M | -0.496 ± 0.086
C446G | 0.144 ± 0.14
S476I | 1.23 ± 0.15
G438F | 0.712 ± 0.11
E296I | 0.711 ± 0.53
V393S | 0.746 ± 0.3
V393P | 0.254 ± 0.38
V393N | 1.09 ± 0.029
P398R | 0.958 ± 0.22
K235T | 0.985 ± 0.098
Q69T | -0.236 ± 0.32

Variant | AIRE transcriptional activation functional score
R356H | 0.935 ± 0.09
R356V | 0.975 ± 0.12
R356A | 0.824 ± 0.18
R356N | 1.01 ± 0.054
D503V | 0.937 ± 0.17
L273W | 1.37 ± 0.051
L273G | 0.95 ± 0.18
A321W | 1.14 ± 0.028
F236M | -0.434 ± 0.082
Q172M | 2.4 ± 0.11
F82H | 0.0485 ± 0.13
A386G | 0.732 ± 0.35
P360C | 1.08 ± 0.13
D41N | 1.79 ± 0.15
A2G | 0.545 ± 0.1
A413K | 0.606 ± 0.33
A482I | 1.32 ± 0.4
A202Y | 1.13 ± 0.13
S250Y | 1.26 ± 0.29
L81G | -0.169 ± 0.42
P380D | 0.476 ± 0.062
C340R | 1.31 ± 0.1
K395C | 0.49 ± 0.85
